Here are results for one molecule from US20220242939A1.

By IC50 is commonly meant the concentration that inhibits the measured activity by half.

Experiment [1] deals with 4E6, recombinant IgG2c antibody. Briefly: inhibition ELISA 2nd protocol: antigen in solution varied, antibody 4E6, plate coated with G200-BSA peptide. For orientation: ELISA stands for enzyme-linked immunosorbent assay.
The target is the same in experiment [2]. The experiment is described as follows: inhibition ELISA: antigen in solution varied, antibody 4E6 at 0.05 µg/ml, plate coated with G200-BSA peptide.

Non-standard residues stand in square brackets, D forms with d. No end group written: not given here. Ahx = NCCCCCC(=O)O

Sequence of 4E6, recombinant IgG2c antibody (VH, as listed by the source limits assumed, chain 1 of 2): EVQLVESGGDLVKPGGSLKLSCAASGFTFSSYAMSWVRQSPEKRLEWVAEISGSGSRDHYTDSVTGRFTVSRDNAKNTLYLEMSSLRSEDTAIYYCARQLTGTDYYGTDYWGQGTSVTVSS
Sequence of 4E6, recombinant IgG2c antibody (VL, as listed by the source limits assumed, chain 2 of 2): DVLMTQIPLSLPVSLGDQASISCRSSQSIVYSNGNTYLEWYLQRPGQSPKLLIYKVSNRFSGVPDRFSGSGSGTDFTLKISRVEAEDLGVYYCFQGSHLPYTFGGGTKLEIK

B1: G200 N-terminal neo-epitope peptide GQPLQE-Acp-C (SEQ ID NO:50) conjugated to BSA (peptide)
peptide: GQPLQE[Ahx]C
modifications: not fully specified (residue 8); printed as GQPLQE-Acp-C; also: C-terminal Cys conjugated to BSA carrier
On to B1, for which the results for the concentration for half-maximal inhibition (IC50) in experiment [1] and in experiment [2] were 11.5 ng/mL and 2.9 ng/mL, respectively.
